Data reported in publication PMC6657595, “A DNA-Binding Protein Tunes Septum Placement during Bacillus subtilis Sporulation”.

T1: RefZ E53K-His6 (Bacillus subtilis 168, UniProt O34970 1-207, E53K)
T1 sequence: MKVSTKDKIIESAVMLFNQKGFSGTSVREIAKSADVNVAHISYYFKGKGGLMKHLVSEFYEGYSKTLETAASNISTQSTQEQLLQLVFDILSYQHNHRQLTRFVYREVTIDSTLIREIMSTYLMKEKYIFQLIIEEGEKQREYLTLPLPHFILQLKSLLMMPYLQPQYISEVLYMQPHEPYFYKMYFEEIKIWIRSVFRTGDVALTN

T2: RefZ R116S-His6 (Bacillus subtilis 168, UniProt O34970 1-207, R116S)
T2 sequence: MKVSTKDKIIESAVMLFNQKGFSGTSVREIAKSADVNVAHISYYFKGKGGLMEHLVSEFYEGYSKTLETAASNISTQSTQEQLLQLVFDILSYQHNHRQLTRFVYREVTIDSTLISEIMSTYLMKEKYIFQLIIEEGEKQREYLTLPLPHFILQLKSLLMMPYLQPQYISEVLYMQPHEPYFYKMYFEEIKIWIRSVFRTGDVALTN

T3: RefZ E61K-His6 (Bacillus subtilis 168, UniProt O34970 1-207, E61K)
T3 sequence: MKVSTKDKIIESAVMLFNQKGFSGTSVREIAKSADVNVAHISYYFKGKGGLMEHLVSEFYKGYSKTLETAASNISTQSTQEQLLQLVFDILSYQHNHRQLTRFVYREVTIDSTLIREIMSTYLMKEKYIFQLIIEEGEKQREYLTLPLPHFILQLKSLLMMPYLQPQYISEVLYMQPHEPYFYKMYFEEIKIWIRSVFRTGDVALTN

T4: RefZ E117D-His6 (Bacillus subtilis 168, UniProt O34970 1-207, E117D)
T4 sequence: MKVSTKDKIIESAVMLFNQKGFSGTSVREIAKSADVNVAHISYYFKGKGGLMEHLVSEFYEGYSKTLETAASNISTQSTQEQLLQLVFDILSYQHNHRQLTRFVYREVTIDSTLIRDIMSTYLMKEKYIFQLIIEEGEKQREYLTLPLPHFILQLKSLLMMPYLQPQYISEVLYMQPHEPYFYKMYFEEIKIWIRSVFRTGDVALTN

T5: RefZ R102C-His6 (Bacillus subtilis 168, UniProt O34970 1-207, R102C)
T5 sequence: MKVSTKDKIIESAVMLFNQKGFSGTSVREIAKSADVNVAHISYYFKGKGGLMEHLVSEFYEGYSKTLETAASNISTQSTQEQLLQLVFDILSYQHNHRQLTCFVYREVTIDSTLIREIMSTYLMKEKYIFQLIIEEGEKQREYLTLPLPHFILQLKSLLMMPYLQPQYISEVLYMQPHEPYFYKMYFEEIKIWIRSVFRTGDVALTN

T6: RefZ R102S-His6 (Bacillus subtilis 168, UniProt O34970 1-207, R102S)
T6 sequence: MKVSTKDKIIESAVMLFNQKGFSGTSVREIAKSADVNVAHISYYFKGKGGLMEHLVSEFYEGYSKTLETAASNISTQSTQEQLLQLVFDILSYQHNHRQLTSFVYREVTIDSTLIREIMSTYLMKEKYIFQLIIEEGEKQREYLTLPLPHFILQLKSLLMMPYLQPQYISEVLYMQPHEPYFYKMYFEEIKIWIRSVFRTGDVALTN

T7: RefZ E179K-His6 (Bacillus subtilis 168, UniProt O34970 1-207, E179K)
T7 sequence: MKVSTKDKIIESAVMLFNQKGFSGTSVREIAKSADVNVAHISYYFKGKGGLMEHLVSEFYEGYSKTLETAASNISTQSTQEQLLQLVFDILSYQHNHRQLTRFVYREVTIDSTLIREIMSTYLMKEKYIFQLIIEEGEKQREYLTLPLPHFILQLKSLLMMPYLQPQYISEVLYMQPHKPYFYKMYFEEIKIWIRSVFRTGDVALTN

T8: RefZ E117G-His6 (Bacillus subtilis 168, UniProt O34970 1-207, E117G)
T8 sequence: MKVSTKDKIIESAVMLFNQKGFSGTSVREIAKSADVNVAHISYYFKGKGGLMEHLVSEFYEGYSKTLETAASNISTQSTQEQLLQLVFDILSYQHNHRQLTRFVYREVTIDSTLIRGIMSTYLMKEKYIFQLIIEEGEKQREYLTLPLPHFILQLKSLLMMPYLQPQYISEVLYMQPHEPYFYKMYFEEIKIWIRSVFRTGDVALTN

T9: RefZ-His6 (WT) (Bacillus subtilis PY79, UniProt O34970 1-207)
T9 sequence: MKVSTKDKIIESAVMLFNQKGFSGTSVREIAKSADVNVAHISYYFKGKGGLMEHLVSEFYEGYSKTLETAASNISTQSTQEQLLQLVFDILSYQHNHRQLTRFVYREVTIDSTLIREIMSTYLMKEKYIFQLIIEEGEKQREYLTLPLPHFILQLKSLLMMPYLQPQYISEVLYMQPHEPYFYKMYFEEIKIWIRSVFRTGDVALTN


What was measured:
[1] = molecular target: RefZ-His6 (wild-type RefZ) (Bacillus subtilis); assay: crystal structure; RefZ-His6 at ~5 mg/ml, dialyzed into 50 mM Tris-HCl pH 8.5, 300 mM KCl with RBM dsDNA added (4:1 RefZ:DNA); hanging-drop vapor diffusion at 16°C; no DNA seen in the crystal; one molecule in the asymmetric unit of a P4(1)2(1)2 lattice; 2.6 Å
RefZ E53K-His6 = molecular target: T1, RefZ E53K-His6; assay: BLI; Kd within 2-fold of WT; 150 mM KCl, 10 mM Tris-HCl pH 8.0; EMSA 10 nM DNA, 30 min, gel at room temperature; BLI 800 nM protein, 30 C; settings: protein: recombinant; tags: C-terminal His6 (pET-24b NheI/XhoI); chain copies: 2; label: 5' biotin on S27 strand; blunt
RefZ R116S-His6 = molecular target: T2, RefZ R116S-His6; assay: as above; settings: protein: recombinant; tags: C-terminal His6 (pET-24b NheI/XhoI); chain copies: 2; label: 5' biotin on S27 strand; blunt
RefZ E61K-His6 = molecular target: T3, RefZ E61K-His6; assay: as above; settings: protein: recombinant; tags: C-terminal His6 (pET-24b NheI/XhoI); chain copies: 2; label: 5' biotin on S27 strand; blunt
RefZ E117D-His6 = molecular target: T4, RefZ E117D-His6; assay: as above; settings: protein: recombinant; tags: C-terminal His6 (pET-24b NheI/XhoI); chain copies: 2; label: 5' biotin on S27 strand; blunt
RefZ R102C-His6 = molecular target: T5, RefZ R102C-His6; assay: as above; settings: protein: recombinant; tags: C-terminal His6 (pET-24b NheI/XhoI); chain copies: 2; label: 5' biotin on S27 strand; blunt
RefZ R102S-His6 = molecular target: T6, RefZ R102S-His6; assay: as above; settings: protein: recombinant; tags: C-terminal His6 (pET-24b NheI/XhoI); chain copies: 2; label: 5' biotin on S27 strand; blunt
RefZ E179K-His6 = molecular target: T7, RefZ E179K-His6; assay: as above; settings: protein: recombinant; tags: C-terminal His6 (pET-24b NheI/XhoI); chain copies: 2; label: 5' biotin on S27 strand; blunt
RefZ E117G-His6 = molecular target: T8, RefZ E117G-His6; assay: BLI; within 2-fold of WT, P = 0.025; 150 mM KCl, 10 mM Tris-HCl pH 8.0; EMSA 10 nM DNA, 30 min, gel at room temperature; BLI 800 nM protein, 30 C; settings: protein: recombinant; tags: C-terminal His6 (pET-24b NheI/XhoI); chain copies: 2; label: 5' biotin on S27 strand; blunt
RefZ-His6 (WT) = molecular target: T9, RefZ-His6 (WT); assay: BLI; Kd value only in Fig. 6 image; reference; 150 mM KCl, 10 mM Tris-HCl pH 8.0; EMSA 10 nM DNA, 30 min, gel at room temperature; BLI 800 nM protein, 30 C; settings: protein: recombinant; tags: C-terminal His6 (pET-24b NheI/XhoI); chain copies: 2; label: 5' biotin on S27 strand; blunt

stoichiometry N [1]	Molecule	binding result (RefZ E53K-His6)	binding result (RefZ R116S-His6)	binding result (RefZ E61K-His6)	binding result (RefZ E117D-His6)	binding result (RefZ R102C-His6)	binding result (RefZ R102S-His6)	binding result (RefZ E179K-His6)	binding result (RefZ E117G-His6)	binding result (RefZ-His6 (WT))
2	RefZ-His6 (wild-type RefZ) (natural protein)									
	RBML1 41-bp (dsDNA) DNA 1: GCCTTTTCGTTTTGAACAAACGTTTGATTAAAACAAATAGC DNA 2: GCTATTTGTTTTAATCAAACGTTTGTTCAAAACGAAAAGGC	binds	binds	binds	binds	binds	binds	binds	binds	binds
